Reference: US20160222130A1 (Astellas, published 2016)
Read-outs that look alike come from different tables or passages of the source.

How the values were obtained:
[1] = target: T1, human Tie2 (on human Tie2-expressing cells) (human, UniProt Q02763 23-1124); assay: cell-based or functional assay
[2] = target: T1, human Tie2 (on human Tie2-expressing …); assay: cell-based or functional assay; remark: listed apart in the source
[3] = target: T1, human Tie2 (on human Tie2-expressing …); assay: cell-based or functional assay; remark: listed apart in the source
[4] = target: T1, human Tie2 (on human Tie2-expressing …); assay: cell-based or functional assay; remark: listed apart in the source
[5] = target: T2, recombinant human Tie2-Fc chimeric protein (R&D, 313-TI-100) (human, UniProt Q02763 23-745); assay: ELISA, Tie2-Fc coated, HRP/TMB absorbance at 450 nm
T2 construct: Bought reagent; Fc part of the bought chimera not given
T2 sequence (Q02763 23-745, change not shown): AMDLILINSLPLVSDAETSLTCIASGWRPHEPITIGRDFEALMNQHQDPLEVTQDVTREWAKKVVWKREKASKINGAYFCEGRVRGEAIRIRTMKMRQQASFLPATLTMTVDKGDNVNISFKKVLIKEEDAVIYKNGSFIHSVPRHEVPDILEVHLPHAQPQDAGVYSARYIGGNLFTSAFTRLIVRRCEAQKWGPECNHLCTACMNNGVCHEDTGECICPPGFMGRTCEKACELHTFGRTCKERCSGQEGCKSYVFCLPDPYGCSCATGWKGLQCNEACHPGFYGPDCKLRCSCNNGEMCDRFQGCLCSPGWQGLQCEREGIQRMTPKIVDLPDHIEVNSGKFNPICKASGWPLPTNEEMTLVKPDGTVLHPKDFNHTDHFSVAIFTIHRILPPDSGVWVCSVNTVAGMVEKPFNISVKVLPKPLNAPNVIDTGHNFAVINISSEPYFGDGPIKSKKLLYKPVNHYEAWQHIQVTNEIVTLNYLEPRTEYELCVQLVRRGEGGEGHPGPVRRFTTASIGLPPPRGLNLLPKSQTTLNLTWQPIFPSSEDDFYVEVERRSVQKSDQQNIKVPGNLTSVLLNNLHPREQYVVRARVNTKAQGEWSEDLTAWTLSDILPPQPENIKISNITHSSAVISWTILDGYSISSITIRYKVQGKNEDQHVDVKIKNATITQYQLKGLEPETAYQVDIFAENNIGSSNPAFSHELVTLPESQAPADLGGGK

[6] = target: T3, recombinant monkey Tie2-Fc chimeric protein (Sino Biological Inc., 90292-C02H) (monkey); assay: as above
T3 construct: Bought reagent

T1 sequence (Q02763 23-1124): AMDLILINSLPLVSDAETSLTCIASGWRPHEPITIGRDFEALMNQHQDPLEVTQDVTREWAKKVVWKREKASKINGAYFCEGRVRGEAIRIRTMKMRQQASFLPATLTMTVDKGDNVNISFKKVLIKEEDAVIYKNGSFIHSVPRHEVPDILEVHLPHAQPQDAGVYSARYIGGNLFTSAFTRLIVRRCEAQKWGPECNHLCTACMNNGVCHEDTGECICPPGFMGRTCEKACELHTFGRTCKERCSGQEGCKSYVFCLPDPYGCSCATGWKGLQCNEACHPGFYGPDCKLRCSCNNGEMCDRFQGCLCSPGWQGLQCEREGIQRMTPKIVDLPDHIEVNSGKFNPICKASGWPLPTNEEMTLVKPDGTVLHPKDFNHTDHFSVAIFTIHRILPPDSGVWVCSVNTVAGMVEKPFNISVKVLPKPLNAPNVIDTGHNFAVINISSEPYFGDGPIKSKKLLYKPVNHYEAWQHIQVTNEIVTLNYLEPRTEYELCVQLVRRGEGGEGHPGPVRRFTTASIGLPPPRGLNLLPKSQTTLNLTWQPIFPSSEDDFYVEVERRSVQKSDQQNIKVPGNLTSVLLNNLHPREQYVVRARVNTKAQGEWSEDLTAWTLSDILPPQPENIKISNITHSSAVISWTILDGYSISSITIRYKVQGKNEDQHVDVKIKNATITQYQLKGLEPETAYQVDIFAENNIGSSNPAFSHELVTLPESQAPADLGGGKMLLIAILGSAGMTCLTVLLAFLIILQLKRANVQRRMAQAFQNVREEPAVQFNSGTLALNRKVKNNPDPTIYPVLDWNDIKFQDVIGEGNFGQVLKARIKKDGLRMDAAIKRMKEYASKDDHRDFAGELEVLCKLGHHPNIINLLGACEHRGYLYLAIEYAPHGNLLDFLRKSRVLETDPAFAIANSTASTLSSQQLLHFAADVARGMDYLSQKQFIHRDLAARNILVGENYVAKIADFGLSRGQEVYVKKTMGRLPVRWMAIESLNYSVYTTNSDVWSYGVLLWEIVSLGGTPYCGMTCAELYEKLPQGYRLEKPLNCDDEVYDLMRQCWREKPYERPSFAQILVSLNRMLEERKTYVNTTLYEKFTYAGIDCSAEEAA

B1: fully human 2-16A2 (antibody, human IgG1, kappa, V domains shown)
VH: EVQLVESGGGLVQPGGSLRLSCAASGFTFDDYAMHWVRQAPGKGLEWVAGISWNSGSIVYADSVKGRFTISRDNSKNTLYLQMNSLRAEDTAVYYCAKDIREQLVEDAFDIWGQGTLVTVSS
VL: DIQMTQSPSSLSASVGDRVTITCRSSQSLLHSHRYNYLDWYQQKPGKAPKLLIYLGSNRASGVPSRFSGSGSGTDFTLTISSVQPEDFATYYCMQTLQTPLTFGQGTKVEIKR
EC50 value of anti-apoptotic activity, human Tie2-expressing BaF3 cell [1]: 0.0376 µg/mL

B2: TIE-1-Igγ1-WT (antibody, human IgG1, kappa)
heavy: not shown
light: DIQMTQSPSSLSASVGDRVTITCRSSQSLLHSHRYNYLDWYQQKPGKAPKLLIYLGSNRASGVPSRFSGSGSGTDFTLTISSVQPEDFATYYCMQTLQTPLTFGQGTKVEIKRTVAAPSVFIFPPSDEQLKSGTASVVCLLNNFYPREAKVQWKVDNALQSGNSQESVTEQDSKDSTYSLSSTLTLSKADYEKHKVYACEVTHQGLSSPVTKSFNRGEC
EC50 value of anti-apoptotic activity, human Tie2-expressing BaF3 cell [1]: 0.0071 µg/mL

B3: TIE-1-Igγ1-I253A (antibody, human IgG1, kappa, L234A L235A)
heavy: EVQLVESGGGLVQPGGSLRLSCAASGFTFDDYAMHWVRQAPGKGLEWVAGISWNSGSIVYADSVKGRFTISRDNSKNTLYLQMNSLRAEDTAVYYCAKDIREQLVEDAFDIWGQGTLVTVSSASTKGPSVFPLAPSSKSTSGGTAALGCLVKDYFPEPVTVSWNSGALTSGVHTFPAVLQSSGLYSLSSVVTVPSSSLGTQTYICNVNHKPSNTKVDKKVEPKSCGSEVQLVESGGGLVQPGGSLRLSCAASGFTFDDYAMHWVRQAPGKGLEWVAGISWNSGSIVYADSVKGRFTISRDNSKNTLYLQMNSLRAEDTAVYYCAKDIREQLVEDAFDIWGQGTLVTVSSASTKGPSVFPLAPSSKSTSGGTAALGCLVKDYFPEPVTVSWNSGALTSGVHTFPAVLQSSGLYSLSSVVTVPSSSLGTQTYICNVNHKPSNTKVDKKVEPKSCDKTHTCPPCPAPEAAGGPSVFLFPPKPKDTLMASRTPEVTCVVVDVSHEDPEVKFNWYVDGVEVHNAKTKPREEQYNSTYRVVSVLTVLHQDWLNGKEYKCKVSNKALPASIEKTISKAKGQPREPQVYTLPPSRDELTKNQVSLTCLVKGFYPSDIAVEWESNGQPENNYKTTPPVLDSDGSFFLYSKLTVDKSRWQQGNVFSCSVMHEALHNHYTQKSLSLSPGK
light: B2 light
EC50 value of anti-apoptotic activity, human Tie2-expressing BaF3 cell [2]: 0.00506 µg/mL

B4: murine monoclonal antibody 15B8 (antibody, V domains shown)
VH: QVQLQQPGVVLVMPGASVKLSCKASGYTFASYWMHWVKQRPGQGLEWIGEIDPSDSYRNYNQKFKGKATLTVDKSSSTVNMQLSSLTSEDSAVYYCAKTSGIGRAMDYWGQGTSVTVSS
VL: DIQMIQSPASLSASVGETVTITCRASENIYSFVTWYQQKQGKSPQLLVFNAKNLVEGVPSSFSGSGSGTQFSLKIDSLQPEDFGTYYCQHHYSIPYTFGGGTKLEMR
anti-apoptotic activity, human Tie2-expressing BaF3 cell (maximum, relative to Ang-1) [3]: ~60% | EC50 value of anti-apoptotic activity, human Tie2-expressing BaF3 cell [4]: 0.0266 µg/mL | EC50 [5]: 0.219 µg/mL | EC50 [6]: 0.224 µg/mL
